The values below come from PMC549567.

Experiment in all cases: EMSA
(A gel shift assay detects complexes by their altered migration in electrophoresis.)

Data set [1] addresses T1, MutS (Escherichia coli, UniProt P23909 1-853).
T1 sequence: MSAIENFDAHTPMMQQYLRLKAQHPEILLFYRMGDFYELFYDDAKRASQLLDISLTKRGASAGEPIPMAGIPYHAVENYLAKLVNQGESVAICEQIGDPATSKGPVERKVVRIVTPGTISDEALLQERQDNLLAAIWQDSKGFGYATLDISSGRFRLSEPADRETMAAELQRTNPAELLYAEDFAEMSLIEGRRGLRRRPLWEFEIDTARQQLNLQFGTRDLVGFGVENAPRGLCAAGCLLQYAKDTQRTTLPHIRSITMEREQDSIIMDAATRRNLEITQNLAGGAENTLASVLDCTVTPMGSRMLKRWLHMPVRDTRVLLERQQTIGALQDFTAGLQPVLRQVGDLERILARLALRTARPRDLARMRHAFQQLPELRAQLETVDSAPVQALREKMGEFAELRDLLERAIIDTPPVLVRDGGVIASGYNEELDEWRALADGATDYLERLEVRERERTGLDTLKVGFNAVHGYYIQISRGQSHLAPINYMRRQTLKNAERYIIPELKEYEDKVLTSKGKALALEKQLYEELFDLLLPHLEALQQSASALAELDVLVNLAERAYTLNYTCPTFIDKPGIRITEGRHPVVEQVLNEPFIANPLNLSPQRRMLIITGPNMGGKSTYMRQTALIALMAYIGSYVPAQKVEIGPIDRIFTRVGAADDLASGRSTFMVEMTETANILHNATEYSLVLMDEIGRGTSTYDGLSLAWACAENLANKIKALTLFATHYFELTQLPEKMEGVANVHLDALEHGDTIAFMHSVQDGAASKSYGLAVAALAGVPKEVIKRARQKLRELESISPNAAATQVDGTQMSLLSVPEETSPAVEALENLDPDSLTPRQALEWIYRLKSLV

Data set [2] concerns the target T2, MutSΔ800 (Escherichia coli, UniProt P23909 1-800, del801-853).
T2 sequence: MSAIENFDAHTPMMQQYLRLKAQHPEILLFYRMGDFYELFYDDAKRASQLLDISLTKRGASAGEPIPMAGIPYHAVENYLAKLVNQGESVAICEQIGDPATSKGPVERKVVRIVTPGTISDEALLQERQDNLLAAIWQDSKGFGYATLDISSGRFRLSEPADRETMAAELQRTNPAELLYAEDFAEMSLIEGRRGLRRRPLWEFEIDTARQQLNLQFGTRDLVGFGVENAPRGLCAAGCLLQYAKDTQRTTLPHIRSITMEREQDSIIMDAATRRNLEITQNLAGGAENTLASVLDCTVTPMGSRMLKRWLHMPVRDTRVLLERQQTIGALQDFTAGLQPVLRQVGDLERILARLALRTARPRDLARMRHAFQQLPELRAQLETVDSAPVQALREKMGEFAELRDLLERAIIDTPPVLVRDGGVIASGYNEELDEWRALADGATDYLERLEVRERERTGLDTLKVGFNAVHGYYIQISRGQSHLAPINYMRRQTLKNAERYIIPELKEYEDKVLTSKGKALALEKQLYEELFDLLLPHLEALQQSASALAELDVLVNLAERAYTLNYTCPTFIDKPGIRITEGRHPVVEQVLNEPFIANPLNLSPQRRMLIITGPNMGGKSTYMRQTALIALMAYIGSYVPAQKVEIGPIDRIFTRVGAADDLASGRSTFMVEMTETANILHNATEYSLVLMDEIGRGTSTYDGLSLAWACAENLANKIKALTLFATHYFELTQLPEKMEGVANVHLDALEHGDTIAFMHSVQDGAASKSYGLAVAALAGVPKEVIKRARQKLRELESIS

Data set [3] concerns the target T1, MutS. This is another data set of the same source.
Data set [4] deals with T2, MutSΔ800. This is another data set of the same source.

Like-named read-outs stand apart in the source and are kept apart here.

B1: O6-meG-C duplex (dsDNA)
DNA 1: ATACGGAAGTTAAAGTGCGGATCATCTCTAG
DNA 2: CTAGAGATGATCCGCACTTTAACTTCCGTAT
modifications: O6-methylguanine at G17 of strand 1
Take B1: the binding result with MutS [1] and with MutSΔ800 [2] was “binds” throughout.

B2: Xlink platinated GG-CC (dsDNA)
DNA 1: CCTCTCCTTGGTCTTCTCCTCTCC
DNA 2: GGAGAGGAGAAGACCAAGGAGAGG
modifications: cisplatin intrastrand 1,2-GG cross-link at G10-G11 of strand 1
With B2, the values for the binding result with MutS [3] and in the data set with MutSΔ800 [4] were “binds” and “no binding”, respectively.

B3: Xlink unplatinated homoduplex GG-CC (dsDNA)
DNA 1: CCTCTCCTTGGTCTTCTCCTCTCC
DNA 2: GGAGAGGAGAAGACCAAGGAGAGG
With B3, the binding result with MutS [3] and with MutSΔ800 [4] was “no binding” in each case.
